Results from patent US20230057602A1 (Bristol-Myers Squibb, published 2023).

Molecular target: T1, human B cell maturation antigen (BCMA) (human, UniProt Q02223 1-184)
T1 sequence (looked up): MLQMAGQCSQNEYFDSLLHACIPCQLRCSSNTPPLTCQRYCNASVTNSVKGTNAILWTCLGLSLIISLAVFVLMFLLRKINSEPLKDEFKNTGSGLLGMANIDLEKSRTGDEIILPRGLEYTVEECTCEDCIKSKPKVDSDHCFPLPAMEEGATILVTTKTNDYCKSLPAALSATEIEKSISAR
Experiment: cell-based or functional assay

B1: CC-93269 (42-TCBcv) (bispecific antibody, human IgG1, kappa, L234A L235A)
heavy 1: not shown
heavy 2: EVQLLESGGGLVQPGGSLRLSCAASGFTFSDNAMGWVRQAPGKGLEWVSAISGPGSSTYYADSVKGRFTISRDNSKNTLYLQMNSLRAEDTAVYYCAKVLGWFDYWGQGTLVTVSSASTKGPSVFPLAPSSKSTSGGTAALGCLVEDYFPEPVTVSWNSGALTSGVHTFPAVLQSSGLYSLSSVVTVPSSSLGTQTYICNVNHKPSNTKVDEKVEPKSCDKTHTCPPCPAPEAAGGPSVFLFPPKPKDTLMISRTPEVTCVVVDVSHEDPEVKFNWYVDGVEVHNAKTKPREEQYNSTYRVVSVLTVLHQDWLNGKEYKCKVSNKALGAPIEKTISKAKGQPREPQVCTLPPSRDELTKNQVSLSCAVKGFYPSDIAVEWESNGQPENNYKTTPPVLDSDGSFFLVSKLTVDKSRWQQGNVFSCSVMHEALHNHYTQKSLSLSPGK
light 1: EIVLTQSPGTLSLSPGERATLSCRASQSVSDEYLSWYQQKPGQAPRLLIHSASTRATGIPDRFSGSGSGTDFTLAISRLEPEDFAVYYCQQYGYPPDFTFGQGTKVEIKRTVAAPSVFIFPPSDRKLKSGTASVVCLLNNFYPREAKVQWKVDNALQSGNSQESVTEQDSKDSTYSLSSTLTLSKADYEKHKVYACEVTHQGLSSPVTKSFNRGEC
light 2: EVQLLESGGGLVQPGGSLRLSCAASGFTFSTYAMNWVRQAPGKGLEWVSRIRSKYNNYATYYADSVKGRFTISRDDSKNTLYLQMNSLRAEDTAVYYCVRHGNFGNSYVSWFAYWGQGTLVTVSSASVAAPSVFIFPPSDEQLKSGTASVVCLLNNFYPREAKVQWKVDNALQSGNSQESVTEQDSKDSTYSLSSTLTLSKADYEKHKVYACEVTHQGLSSPVTKSFNRGEC
- IC50 (ng/ml) of redirected lysis, H929 cells co-cultured with healthy donor T cells (E:T 1:1, 72 h), DMSO control, mean of 3 donors: 3.42 ng/mL
- IC50 (ng/ml) of redirected lysis, H929 cells co-cultured with healthy donor T cells (E:T 1:1, 72 h), with 1 µM dexamethasone, mean of 3 donors: 6.52 ng/mL
- IC50 (ng/ml) of redirected lysis, KMS12-PE cells co-cultured with healthy donor T cells (E:T 1:1, 72 h), DMSO control, mean of 3 donors: 0.2 ng/mL
- IC50 (ng/ml) of redirected lysis, KMS12-PE cells co-cultured with healthy donor T cells (E:T 1:1, 72 h), with 1 µM dexamethasone, mean of 3 donors: 3.61 ng/mL
- IC50 (ng/ml) of redirected lysis, MM1S cells co-cultured with healthy donor T cells (E:T 1:1, 72 h), DMSO control, mean of 3 donors: 0.21 ng/mL
- IC50 (ng/ml) of redirected lysis, MM1S cells co-cultured with healthy donor T cells (E:T 1:1, 72 h), with 1 µM dexamethasone, mean of 3 donors: 3.31 ng/mL
- IC50 (ng/ml) of redirected lysis, SKMM2 cells co-cultured with healthy donor T cells (E:T 1:1, 72 h), DMSO control, mean of 3 donors: 0.09 ng/mL
- IC50 (ng/ml) of redirected lysis, SKMM2 cells co-cultured with healthy donor T cells (E:T 1:1, 72 h), with 1 µM dexamethasone, mean of 3 donors: 0.34 ng/mL
